# Assays:
# Assay in all cases: cell_activity
# [1] = test system: mZF11-ZF87 (mZF-ZF87, mZF-KRAB) (artificial (mouse Zif268 scaffold)); conditions: R6/1 mice, 2 weeks after AAV injection; mZF-ZF87 design given as SEQ 50 (p342), legend of FIG. 13 cites SEQ 49
# [2] = test system: ZF11xHunt-Kox-1 (ZF-Kox-1) (artificial (human Zif268 scaffold))
# [3] = test system: ZF6xHunt-Kox-1 (artificial (human Zif268 scaffold)); conditions: mRNA repression up to 2.5-fold (60%); protein 2-fold; STHdh cells 20 days
# ZF6xHunt-Kox-1 (artificial (human Zif268 scaffold)), sequence (chain, as listed by the source): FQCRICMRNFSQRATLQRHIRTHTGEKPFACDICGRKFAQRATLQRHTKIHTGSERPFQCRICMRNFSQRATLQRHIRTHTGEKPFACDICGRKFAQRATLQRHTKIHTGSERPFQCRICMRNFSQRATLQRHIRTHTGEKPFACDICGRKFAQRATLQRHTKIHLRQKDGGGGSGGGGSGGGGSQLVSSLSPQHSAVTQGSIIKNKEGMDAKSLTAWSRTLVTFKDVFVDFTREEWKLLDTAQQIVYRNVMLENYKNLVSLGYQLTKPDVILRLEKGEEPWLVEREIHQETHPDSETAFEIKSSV
# ZF11xHunt-Kox-1 (ZF-Kox-1) (artificial (human Zif268 scaffold)), sequence (chain, as listed by the source): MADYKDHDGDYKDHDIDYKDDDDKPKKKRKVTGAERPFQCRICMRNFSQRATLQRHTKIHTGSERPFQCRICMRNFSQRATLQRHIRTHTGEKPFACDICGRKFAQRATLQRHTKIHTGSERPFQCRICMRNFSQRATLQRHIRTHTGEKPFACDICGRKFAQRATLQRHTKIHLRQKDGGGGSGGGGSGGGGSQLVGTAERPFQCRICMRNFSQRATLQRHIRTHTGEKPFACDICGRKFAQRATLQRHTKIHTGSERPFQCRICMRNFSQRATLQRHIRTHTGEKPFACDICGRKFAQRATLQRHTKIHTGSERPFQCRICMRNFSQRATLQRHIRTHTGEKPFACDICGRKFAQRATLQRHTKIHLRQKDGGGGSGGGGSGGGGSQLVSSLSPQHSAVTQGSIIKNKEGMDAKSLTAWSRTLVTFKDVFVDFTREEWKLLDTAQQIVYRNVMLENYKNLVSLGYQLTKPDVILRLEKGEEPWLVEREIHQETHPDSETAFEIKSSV
# mZF11-ZF87 (mZF-ZF87, mZF-KRAB) (artificial (mouse Zif268 scaffold)), sequence (chain, as listed by the source): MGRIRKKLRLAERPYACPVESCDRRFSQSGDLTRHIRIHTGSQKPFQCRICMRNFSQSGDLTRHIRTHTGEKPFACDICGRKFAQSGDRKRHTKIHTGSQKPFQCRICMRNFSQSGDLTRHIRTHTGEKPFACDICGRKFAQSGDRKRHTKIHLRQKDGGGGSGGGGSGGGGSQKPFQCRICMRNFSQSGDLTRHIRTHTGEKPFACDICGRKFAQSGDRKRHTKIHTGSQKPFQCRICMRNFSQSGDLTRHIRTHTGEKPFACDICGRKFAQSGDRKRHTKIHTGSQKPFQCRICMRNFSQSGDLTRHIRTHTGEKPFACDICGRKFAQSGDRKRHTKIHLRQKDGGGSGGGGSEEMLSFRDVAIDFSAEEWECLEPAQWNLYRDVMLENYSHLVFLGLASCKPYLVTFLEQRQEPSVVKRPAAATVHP
Substance,activity [1],"activity ([2]; R6/2 mice, 2 weeks after AAV injection, mRNA)","activity ([2]; almost 80% mRNA reduction, 95% protein reduction, STHdh cells 20 days)",activity [3]
mutant HTT transgene in R6/2 or R6/1 mice,30 % reduction,35 % reduction,–,–
chromosomal mutant Htt Q111 (STHdhQ111),–,–,80 % reduction,2.5 fold

# Reference: patent publication US20190247519
